± gives the uncertainty stated by the source.
Experiment: amyloid nucleation score (Sup35N fusion, yeast selection) (log enrichment); library NNK1; higher = more nucleation; inactive = no reads after selection
Outline: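 Psi-negative yeast expressed Sup35N fused to peptides of 20 random codons. They were induced 24 hours with 100 μM copper sulfate, grown 7 days at 30°C without adenine and uracil, and their plasmid inserts from input and output were Illumina-sequenced. The nucleation score is the DiMSum log enrichment of output over input reads, centred on the mode score of non-aggregating sequences. Sequences with under 100 input reads were excluded.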

| Substance | amyloid nucleation score |
| --- | --- |
| CYALNWCRLPALHSFFQCRK | 0.853 ± 0.65 |
| MRLSNYFTGRDWGF | -0.046 ± 0.43 |
| VYFVTFWSYVNFHV | -0.208 ± 0.28 |
| SMIDFIRSFLYHSY | -1.1 ± 0.5 |
| RYICVTFISLGELPFYWWFT | -1.55 ± 0.83 |
| AGSGRGRGGCTSNRSDYSSG | -0.849 ± 1 |
| VWLWDLA | 1.25 ± 0.62 |
| NNKDISYGREAGGYEVERKD | -0.907 ± 1.2 |
| TSSSRSIDR | 0.16 ± 0.35 |
| KDARLHFSWRL | 0.933 ± 0.6 |
| GTMKWALYSDYLSSTFTIYH | 0.137 ± 0.26 |
| FFWNRWRRTQRANTMLMMRM | 0.402 ± 0.68 |
| VLQDSGIAAYKYSGSCDCSF | -1.07 ± 0.58 |
| FLYDYYG | inactive |
| IRMLSRSLSKMSIIFHGGKG | 1.33 ± 0.46 |
| MKYPENSQWKDLYGFTVQVH | 0.102 ± 0.46 |
| TMVFCRI | 0.23 ± 0.79 |
| ISIPYICIMVFFFDAVRVDQ | 0.49 ± 0.34 |
| TTRMRRRY | 1.89 ± 0.56 |
| VACNIGHSYVNYYCRGIILC | 0.586 ± 0.4 |
| YRIHKIIKEPAEVTSLLRW | -0.813 ± 0.52 |
| ASNGVN | -0.099 ± 0.5 |
| GNDIEAIKHSGLLLSSWTMG | -0.253 ± 1.2 |
| AGSFFSYGQFVKFTVLYHSE | -0.053 ± 0.6 |
| VYWNV | 1.1 ± 0.57 |

| Substance | amyloid nucleation score |
| --- | --- |
| WPVLFFI | -1.46 ± 1.8 |
| TFSDSLKNLQVMVHYSWVVG | 0.224 ± 1.4 |
| SQINWILYTSNFTLW | -1.02 ± 1.7 |
| FVVGSRFMKIHVSGGDLGFF | -0.144 ± 0.39 |
| YQNFPVKLITQKCLCWIDRC | 0.216 ± 0.31 |
| WYRLFALIGLAYLH | 0.586 ± 0.56 |
| GMDTGNITAQSMAGLPRRAS | -0.299 ± 0.49 |
| CGDKNILTRIWLERVSVLAS | 0.056 ± 0.33 |
| YWLGLNMCVFSHPGCGLREI | 6.64 ± 0.047 |
| FRVMNRGAFYMRFKLG | 1.04 ± 0.67 |
| NVRSFWFSGNQSNIGGICWG | 0.204 ± 0.43 |
| MRLSHAVTYRN | -0.987 ± 1.7 |
| ATPMFNVPVHRCVKKV | -0.206 ± 0.46 |
| HFVCYNCWGYICTVCLTSRE | 8.228 ± 0.065 |
| FCRDVSVYLDYLDGPRSGWS | -0.245 ± 0.35 |
| PNVFFFLISMIFSDFLVGSG | 0.192 ± 1.2 |
| YLSIKVITQGDWKCQVRVLW | -0.332 ± 0.55 |
| LVHKLFDIRRCPTAFSNWTM | 1.29 ± 0.47 |
| DVGMLV | -0.107 ± 0.31 |
| ACRDVGHSVVLCKFKS | -1.01 ± 1.4 |
| AKCGICLFYGM | -0.358 ± 0.36 |
| YLQETLYNKWDWFGNHQGLM | 0.107 ± 0.26 |
| CSYQNCLVN | -0.795 ± 0.29 |
| INRHVAMWEDQVLSRLAMWF | 2.53 ± 0.13 |
| LSTYAGCRNAWPELQ | -0.52 ± 0.4 |

| Substance | amyloid nucleation score |
| --- | --- |
| IVPRAFIAWIAYQGRSPYGA | 0.619 ± 1.2 |
| GTDPGY | -0.706 ± 0.6 |
| YRCGECNSSVMCMGLRCLWM | 5.87 ± 0.059 |
| VFHAAVM | -0.192 ± 0.93 |
| DIERMKVPELFCLLSLDTGP | -0.376 ± 1.7 |
| IVLFSPFTW | -0.062 ± 0.31 |
| GFRFEMSRQIHKWQSSCLLY | 0.489 ± 0.6 |
| CISLTCVVYGSML | 7.213 ± 0.048 |
| YGNLYCQTFLVWCRNIFLLI | 0.255 ± 0.41 |
| STCSPKELQFMSYVCWVKFC | 3.32 ± 0.11 |
| FAFTIFPCYYWDLNCLRFQH | 6.549 ± 0.047 |
| LWFAHNS | 0.462 ± 0.59 |
| SFDRLMCRAM | 0.688 ± 0.88 |
| TNIFMSFKFLISSLRCFPER | 4.68 ± 0.12 |
| GLKLKIREYSAFLCR | -0.027 ± 0.36 |
| MRFMPVVWCRRMQESLGHST | -0.026 ± 0.37 |
| NPNTKYINCPHRVAFRGKLM | 0.552 ± 0.74 |
| NFHFVMGISVIRRLMSESQS | -0.366 ± 0.66 |
| MIPDINIFQIIMVTHKLFRY | 3.71 ± 0.14 |
| CIRMVRGSTGSTVNMSSRCS | 0.347 ± 0.27 |
| VLCLWISGLPVLCSVCDPLV | 0.1 ± 0.45 |
| FRSFGVR | 0.924 ± 0.97 |
| DDMCFLN | 0.797 ± 0.34 |
| HDFPIR | inactive |
| KTFYLWW | 3.04 ± 0.14 |

| Substance | amyloid nucleation score |
| --- | --- |
| GTLRHDVMRQLTFLCYFINL | 0.047 ± 0.72 |
| FNLFVTFSMLRPWSAVPMLA | 0.338 ± 0.81 |
| TGKGSSEHLRSNMNHRLYCA | 0.85 ± 0.43 |
| FVLDNRKFYVCFVGYRFGLF | 4.83 ± 0.051 |
| GFGAQPWRARSMFYK | 0.566 ± 0.67 |
| HRRLRMRT | -0.469 ± 0.79 |
| DKPIV | -0.09 ± 0.88 |
| TAGATI | 0.108 ± 0.25 |
| TLMDQSLYIWGSN | -0.274 ± 0.63 |
| CPITWNFLCGIVLIEYYRVV | 7.04 ± 0.087 |
| EAGQLLL | inactive |
| LWNIIVSIKGRIVESLAPTY | -0.113 ± 0.51 |
| YWNKITRFFCMLESNVTLHT | 0.207 ± 1.4 |
| HQKACCSRLMNCGYNSAKWR | -0.612 ± 0.89 |
| LNRFVPASRWDHLHL | -0.353 ± 1.7 |
| IESEGSWRIHWK | 0.638 ± 0.39 |
| LICVGCSCYSLKLSYNSSGL | 5.79 ± 0.058 |
| RTGVIWYY | -0.677 ± 1 |
| MDLNEQTEYLLLASRFPMYY | inactive |
| IGYRYQSMLGCEGGRWWWVV | 0.45 ± 0.58 |
| MHLVQSCYLVIPRVLDPELV | 0.313 ± 1 |
| IRHRCSLMICFPAHTRGSAQ | -0.219 ± 0.68 |
| GLECD | 0.469 ± 0.43 |
| IGCSCNPYGTFWG | 5.93 ± 0.066 |
| SVGEDSSFRRDSKINEGDCD | 0.968 ± 0.85 |

| Substance | amyloid nucleation score |
| --- | --- |
| MSVGSRFTHHIMWTVTKNRV | 0.424 ± 1 |
| CCQSFLLKSPSYRAMAFIWW | -0.929 ± 0.33 |
| FSYYVKGDGKERVGWMASIM | -0.94 ± 0.94 |
| ECKWSLKNHYWVYDGLRGGT | -0.378 ± 0.78 |
| LYNVSSLGSANKSFLGRSS | 1.39 ± 0.76 |
| ICGRNTLCARRRTSRLVGIE | 1.1 ± 0.97 |
| DIDFLLNLCESNLIFANM | -0.887 ± 0.87 |
| FENDWNLINLLGF | 1.49 ± 0.55 |
| DNRVLVPRRAFNDHIWCMYV | -0.23 ± 0.61 |
| DYSYCKVNPLNSVLSVLVLL | -0.34 ± 0.29 |
| SSVRLDKNN | -0.315 ± 0.52 |
| GLVHEAHLDANKFFH | -0.139 ± 0.71 |
| LFHQLRITSVLSYDDKCEAR | 0.41 ± 0.2 |
| RDHMAYYMSVVGSSKNPLRR | inactive |
| HFGKRHSYRYLDDTCAQNLY | -0.811 ± 0.63 |
| FYRASKDCLAKVRRVGC | 0.482 ± 0.59 |
| TVMSNHGHLMKYYFVRLEGF | 0.759 ± 0.62 |
| PCDSICALFALSKHQVGGGW | 0.324 ± 0.55 |
| RGLYFNALSR | -0.167 ± 0.43 |
| SGSWNMCNHVRVNCYAIDKV | 0.167 ± 0.3 |
| GMVLEWWIFMFGVPFSSDRA | -0.122 ± 0.74 |
| KCIQGTGSLWD | -0.128 ± 0.3 |
| FINLASVVSIVVLVT | 4.24 ± 0.076 |
| LVSGRRGRRESSNHMVGLLE | 0.968 ± 0.51 |
| GAIFYGVCCIRPNWNVVSTS | 5.69 ± 0.059 |

| Substance | amyloid nucleation score |
| --- | --- |
| KKDTDRSIVFVSLYSPDSKA | -0.064 ± 0.5 |
| REEYYGIPSEINGHTTLVYS | 1.03 ± 0.72 |
| CVGSIKVNSLSRLFCHLLCV | -0.187 ± 1.2 |
| ASFITGWMANTYN | 0.385 ± 0.42 |
| GHDVWKANSLTRVKLREYYG | 0.546 ± 0.35 |
| PLEVWNRGVGPIGCVCRGLK | 1.29 ± 0.57 |
| NIVFL | 0.021 ± 0.55 |
| PPETRTPVINRSLSIEFDPK | -0.022 ± 0.68 |
| VVVWVFHFYAC | 1.16 ± 0.71 |
| FIKHGNLSAKQPVEKDLKLD | 0.414 ± 0.46 |
| VVSRRVYDYTMDGLWGQ | 0.44 ± 0.36 |
| SVLVLSRYFWNKLMRRWLVA | -0.002 ± 1.2 |
| SIGCIYRSSKSGDVSISY | -0.057 ± 0.37 |
| KFSCGTFSLRHPT | 0.725 ± 0.52 |
| HLNNSLLELVNCRKYSIKGC | 0.088 ± 0.35 |
| SGGCMDSKLSAVG | 0.894 ± 0.51 |
| GGLGVDATGYHVSTEGEELE | -0.275 ± 0.43 |
| RSRVSIRSHSDRRGRVKRVV | 1.15 ± 0.65 |
| GVSMNSFLICDFDIWQIKTR | -0.162 ± 0.22 |
| DAADMTGLFNRLLCVFEYVW | 0.797 ± 0.66 |
| SGYTGDDFQLKVEG | -0.307 ± 0.39 |
| RIENNFLSTSFVFSCLIGNM | 5.88 ± 0.07 |
| LYAVLDILVMFMLMSPP | 0.253 ± 0.36 |
| DSLSNLCDFCSSK | 0.668 ± 0.5 |
| AFHLTSSSLFLFSWNSWVAV | 5.3 ± 0.082 |

| Substance | amyloid nucleation score |
| --- | --- |
| MTRNELLSLSLARCVGANAL | 0.088 ± 1.2 |
| IYASLNVEICFADLPWSTWV | 0.358 ± 0.81 |
| TLQLCLSSCWYKGRRVGLEC | 0.483 ± 0.3 |
| GVSMGKESMIV | -0.671 ± 0.72 |
| HITDYRVRT | 1.27 ± 0.41 |
| LTISRSYRPKWFSVSTGLDS | 0.437 ± 1.4 |
| LKNSVSFMADGS | -0.327 ± 0.38 |
| HVIYRLRGFITSSPFMTLRT | 0.577 ± 0.45 |
| VFVSCIILRRYFYMFLVGPF | 0.752 ± 0.45 |
| IETSKFRPINVKLVIYCCHG | 0.499 ± 0.79 |
| EVRLPQTYLVEWGTNQFRF | -0.504 ± 0.57 |
| WSNPPITCSSVGINHHVSVV | -0.171 ± 0.33 |
| SDVGLGNKKSWGVRAVCLDE | 0.452 ± 1.2 |
| TPSLAEADCL | -0.909 ± 2.7 |
| TLRWGNYKLLQIVYITVWRD | 0.541 ± 0.28 |
| GHRVAGCFSMSGVG | 1.25 ± 0.44 |
| YMWFMNRSILIIAELFVVFT | -0.287 ± 0.48 |
| WNYRGIKYF | 0.129 ± 0.39 |
| VYAYVSHLLIYVFSGRV | inactive |
| LVLCSFYYDKAWSPESCLME | -0.258 ± 0.62 |
| CVAWNIDW | 0.069 ± 0.76 |
| LGHGGVR | 0.566 ± 0.28 |
| YSKWSISTFECMWAKNWRGD | 1.66 ± 0.39 |
| MFGIFM | 3.58 ± 0.099 |

From the supplement of paper PMC12042874
